How the values were obtained:
[1] = biological target: Biotin-GCN4 peptide (yeast); assay: SPR (Biacore 3000, 25 C): Biotin-GCN4 peptide captured on immobilised streptavidin (CM5 chip), Fab-scFv injected as analyte, 1:1 binding model
[2] = biological target: Biotin-GCN4 peptide (yeast); assay: SPR, Biacore 3000, 25 C; Biotin-GCN4 peptide captured on immobilised streptavidin (CM5), Fab-scFv injected in three-fold dilutions from 30 nM, 1:1 binding model

B1: Fab A-scFv '52SR4' (protein, part only; not given: Fab A heavy and light chains, not shown: another chain or arm of the molecule; a dimerising Fc or GST; small tags and cut ends)
scFv: DAVVTQESALTSSPGETVTLTCRSSTGAVTTSNYASWVQEKPDHLFTGLIGGTNNRAPGVPARFSGSLIGDKAALTITGAQTEDEAIYFCVLWYSDHWVFGCGTKLTVLGGGGGSGGGGSGGGGSGGGGSDVQLQQSGPGLVAPSQSLSITCTVSGFLLTDYGVNWVRQSPGKCLEWLGVIWGDGITDYNSALKSRLSVTKDNSKSQVFLKMNSLQSGDSARYYCVTGLFDYWGQGTTLTVSSAAAHHHHHHEQKLISEEDL
How did the koff [1] turn out when B1 was run?
Its koff is 0.00027 s⁻¹.

What about the kon [1] of the same binder?
The kon was 510000 M⁻¹ s⁻¹.

And the Kd [2]?
The Kd was 0.516 nM.

Reference: patent publication US20170081404A1
